What is called EC50 is the concentration needed to bring the measured effect to its halfway point. What is called Kd is the free concentration of one partner at which half of the binding sites on the other are occupied at equilibrium, for simple one-to-one binding.

The target in assay [1] is T1, murine C4.4a on transfected CHO-S:mC4.4a cells (mouse, UniProt Q91YK8 33-343).
T1 construct: full length GPI-anchored form, stably transfected; also called Mouse C4.4a:CHO; mC4.4a: CHO
T1 sequence: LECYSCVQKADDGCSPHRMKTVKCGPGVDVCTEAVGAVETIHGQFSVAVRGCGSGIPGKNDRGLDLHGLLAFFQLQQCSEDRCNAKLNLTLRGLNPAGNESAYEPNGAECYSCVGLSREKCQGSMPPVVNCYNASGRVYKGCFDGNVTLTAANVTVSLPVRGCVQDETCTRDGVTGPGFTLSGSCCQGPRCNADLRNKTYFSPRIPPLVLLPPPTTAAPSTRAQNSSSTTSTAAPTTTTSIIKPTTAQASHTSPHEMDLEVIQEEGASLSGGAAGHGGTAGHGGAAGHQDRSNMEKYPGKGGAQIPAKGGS
Nature of the assay: FACS titration of IgG1 on CHO-S:mC4.4a cells.

In assay [2] the target is T2, recombinant soluble human C4.4a (human, UniProt O95274 31-308).
T2 construct: recombinant, soluble, purified protein; also called hC4.4a; full length C4.4a
T2 sequence: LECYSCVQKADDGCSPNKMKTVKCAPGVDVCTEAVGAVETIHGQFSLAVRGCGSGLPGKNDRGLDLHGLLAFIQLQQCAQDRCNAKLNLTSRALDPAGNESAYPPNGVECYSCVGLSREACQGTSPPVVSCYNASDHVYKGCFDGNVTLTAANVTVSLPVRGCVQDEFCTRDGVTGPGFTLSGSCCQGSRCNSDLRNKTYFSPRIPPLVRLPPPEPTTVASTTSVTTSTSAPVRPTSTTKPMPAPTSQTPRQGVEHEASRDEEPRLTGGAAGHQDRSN
Nature of the assay: SPR (Biacore T100), IgG1 captured by anti-human Fc, soluble C4.4a injected, 1:1 fit. As to the method:
(§1) Binding affinities of anti C4.4 antibodies were determined by surface plasmon resonance analysis on a Biacore T100 instrument (GE Healthcare Biacore, Inc.). Antibodies were immobilized onto a CM5 sensor chip through an indirect capturing reagent, anti-human IgG Fc. Reagents from the “Human Antibody Capture Kit” (BR-1008-39, GE Healthcare Biacore, Inc.) were used as described by the manufacturer. Approximately 5000 RU monoclonal mouse anti-human IgG (Fc) antibody were immobilized per cell. Anti C4.4 antibodies were injected at a concentration of 5 μg/ml at 10 μl/min for 10 sec to reach a capturing level of approximately 200 to 600 RU. Various concentrations (400 nM, 200 nM, 100 nM, 50 nM, 25 nM, 12.5 nM, 6.25 nM, and 3.12 nM) in HEPES-EP buffer (GE Healthcare Biacore, Inc.) of human or murine C4.4a were injected over immobilized anti C4.4a antibodies at a flow rate of 60 μl/min for 3 minutes and the dissociation was allowed for 10 minutes. Sensograms were generated after in-line reference cell correction followed by buffer sample subtraction. The dissociation equilibrium constant (KD) was calculated based on the ratio of association (kₒₙ) and dissociation rated (koff) constants, obtained by fitting sensograms with a first order 1:1 binding model using Biavaluation Software (version 4.0).

The target of assay [3] is T3, recombinant soluble murine C4.4a (mouse, UniProt Q91YK8 33-343, limits assumed).
T3 construct: also called mouse C4.4a; mC4.4a
T3 sequence (looked up): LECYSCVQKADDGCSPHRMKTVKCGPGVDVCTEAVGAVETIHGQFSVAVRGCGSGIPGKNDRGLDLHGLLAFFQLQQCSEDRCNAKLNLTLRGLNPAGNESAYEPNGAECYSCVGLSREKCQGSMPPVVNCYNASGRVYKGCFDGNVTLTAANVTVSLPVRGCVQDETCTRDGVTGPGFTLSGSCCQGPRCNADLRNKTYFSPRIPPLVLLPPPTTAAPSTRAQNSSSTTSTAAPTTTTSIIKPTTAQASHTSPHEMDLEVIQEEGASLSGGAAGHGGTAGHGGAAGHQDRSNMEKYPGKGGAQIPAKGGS
The description is as above. As to the method: as §1

In assay [4] the target is T2, recombinant soluble human C4.4a. Nature of the assay: ELISA, IgG1 on coated recombinant human C4.4a. As to the method:
FIG. 2 depicts binding curves of anti-C4.4 antibody M31-B01 and M20 D02 S-A on recombinant human C4.4a (A) and murine C4.4a (B) respectively. Briefly, 96-well MTP were coated for 16 h at 4° C. with recombinant human or mouse C4.4a (100 ng/well plates were washed 3 times with PBS/0.05% Tween 20 (=buffer B) treated with blocking reagent (PBS+2% BSA), and washed again 3 times with buffer B. After that anti C4.4a antibodies of the invention were added in concentrations of 0.39 ng to 400 ng/per well and incubated for one hour at 20° C. After washing 3 times with buffer B, 20 ng of Protein A were added in 100 μl buffer B to each well. Color reaction was developed by addition of 50 W 3,3′,5,5′-Tetramethylbenzidine (TMB) (Sigma). Data for EC₅₀ determination were recorded after 18 min by measuring extinction […] a Tecan infinite plate reader. EC₅₀ values for M31-B01 were 0.24 and 0.29 nM on human and murine C4.4a, respectively. And for M20-D02 S-A EC₅₀ values were 0.3 and 0.38 nM on human and murine C4.4a, respectively. This indicates high affinity binding of anti C4.4a antibodies of the invention to both human and murine soluble recombinant C4.4a.
On the technique in general: An ELISA detects its analyte on a solid surface through an enzyme-linked reagent.

B1: M20-D02 S-A (antibody, human IgG1, V domains shown)
VH: EVQLLESGGGLVQPGGSLRLSCAASGFTFSDYQMTWIRQTPGKGLEWVSGVSWNGARTHYADSVKGRFTISRDNSKNTLYLQMNSLRAEDTAVYYCAKGDYLVYSAYYFDSWGQGTLVTVTS
VL: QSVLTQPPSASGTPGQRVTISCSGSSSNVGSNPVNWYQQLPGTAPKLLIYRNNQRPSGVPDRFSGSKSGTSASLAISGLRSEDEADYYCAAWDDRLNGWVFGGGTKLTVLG
notes: tested as human IgG1
As to B1, the EC50 in assay [1] is 1.6 nM; in assay [4], 0.3 nM. Further, the results for the Kd in assay [2] and in assay [3] were 220 nM and 180 nM, respectively.

B2: M31-B01 (antibody, human IgG1, V domains shown)
VH: EVQLLESGGGLVQPGGSLRLSCAASGFTFSNAWMSWVRQAPGKGLEWVSYISSSGSTIYYADSVKGRFTISRDNSKNTLYLQMNSLRAEDTAVYYCAREGLWAFDYWGQGTLVTVTS
VL: QSVLTQPPSASGTPGQRVTISCTGSSSNIGAGYVVHWYQQLPGTAPKLLIYDNNKRPSGVPDRFSGSKSGTSASLAISGLRSEDEADYYCAAWDDRLNGPVFGGGTKLTVLG
notes: tested as human IgG1
B2: the EC50 was determined as 1.9 nM in assay [1] and 0.24 nM in assay [4]. Moreover, the dissociation constant Kd in assay [2] was determined as 70 nM; in assay [3] it was 130 nM.

(Values after patent US20120321619A1 (Bayer, published 2012).)
